Each molecule was assayed on K562 CRISPRi cells (assay: Constant region variant library pooled growth screen, K562). Conditions: sgRNA constant region variants; activity relative to the original, un-modified constant region cr995.
Type: cell-based, human
Summary of the method: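 Relative activity expresses each targeting sequence:constant region pair's phenotype over that of the unmodified constant region. Pooled growth screen ran in K562 CRISPRi cells in duplicate spinner-flask replicates, with puromycin selection and 4–8 days' growth at >2000× coverage; library paired variants with 36 targeting sequences.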

Molecule | Mean relative activity
cr330 (nucleic acid, listed as DNA, chemistry not fully specified) guide: GTTTAAGAGCTAAGCTGGAAACAGCATAGCAAGTTTAAATAAGGATATTCCGTTATCAACTTGAAAAAGTGCCACCGAGTCGGTGGT | 0.5762
cr989 (nucleic acid, listed as DNA, chemistry not fully specified) guide: GTTTAAGAGCTAAGCTGGAAACAGCATAGCAAGTTTAAATAAGGCTAGTCCGTTATCAACTTGAAAAAATGGCACCGAGTCGGTGCT | 0.5623
cr837 (nucleic acid, listed as DNA, chemistry not fully specified) guide: GTTTAAGAGCTAAGCTGGAAACAGCATAGCAAGTTTAAATAAGGCTAGTCCGTTATCAACTTGAAAAAGTGGCACCCAGTCGGTGCT | 0.5543
cr098 (nucleic acid, listed as DNA, chemistry not fully specified) guide: GTTTACGTGCTAAGCTGGAAACAGCATAGCAAGTTTAAATAAGGCTAGTCCGTTATCAACTTGAAAAAGTGGCACCGAGTCGGTGCT | 0.534
cr846 (nucleic acid, listed as DNA, chemistry not fully specified) guide: GTTTAAGAGCTAAGCTGGAAACAGCATGGCAAGTTTAAATAAGGCTAGTCCGTTATCAACTTAAAAAAGTGGCACCGGGTCGGTGCT | 0.5528
cr814 (nucleic acid, listed as DNA, chemistry not fully specified) guide: GTTTAAGAGCTAAGCTGGAAACAGCATAGCAAGTTTAAATAAGGCTAGTCCGTTATCAACTTGAAAAAGTGGGTCCGAGTCGGACCT | 1.048
cr842 (nucleic acid, listed as DNA, chemistry not fully specified) guide: GTTTAAGAGCTAAGCTGGAAACAGCATAGCAAGCTTAAATAAGGCTAGTCCGTTATCAGCTTGAAAAAGCGGCACCGAGTCGGTGCT | 0.5544
cr430 (nucleic acid, listed as DNA, chemistry not fully specified) guide: GTTTAAGAGCTAAGCTGGAAACAGCATAGCAAGTTTAAATAAGACTAGTTCGTTATCAAATTGAAAAATTGGCACAGAGTCTGTGCT | 0.5328
cr940 (nucleic acid, listed as DNA, chemistry not fully specified) guide: GTTTAAGAGCTAAGCTGGAAACAGCATAGCAAGCTTAAATAAGGCTAGTCCGTTATCAACGTGAAAACGTGGCACCGAGTCGGTGCT | 0.5399
cr651 (nucleic acid, listed as DNA, chemistry not fully specified) guide: GTTTAAGAGCTAAGCTGGAAACAGCATAGCAAGTTTAAATAAGGCTAGTCCGTTTGCAACTTGAAAAAGTAGCACCGAGTCGGTGCT | 0.5637
cr342 (nucleic acid, listed as DNA, chemistry not fully specified) guide: GTTTAAGAGCTAAGCTGGAAACAGCATAGCAAGTTTAAATAAGGCTAGTCCGTTATTAACTTGATAAAGTGGCACCGAGTCGGTGCT | 0.5422
cr959 (nucleic acid, listed as DNA, chemistry not fully specified) guide: GTTTAAGAGCTAAGCTGGAAACAGCATAGCAAGTTTAAATAAGGCTAGTCCGTTATCAATTCGAAATACTGGCACCGAGTCGGTGCT | 0.5251
cr957 (nucleic acid, listed as DNA, chemistry not fully specified) guide: GTTTAAGAGCTAAGCTGGAAACAGCATAGCAAGTTTAAATAAGGGTACTCCGTTATCAACTTGAAAAAGTGCCACCGAGTCGGTGGT | 0.5576
cr976 (nucleic acid, listed as DNA, chemistry not fully specified) guide: GTTTAAGAGCTAAGCTGGAAACAGCATAGCAAGTTTAAATAAGGGTACTCCGTTATCAACTTGAGAAAGTGGCACCGAGTCGGTGCT | 0.5594
cr533 (nucleic acid, listed as DNA, chemistry not fully specified) guide: GTTTAAGAGCTAAGCTGGAAACAGCATAGCAAGTTTAAATAAGGCTAGTCCGTTATCAGCTTGAAAAAGCGGCGGCGAGTCGCCGCT | 0.5558
cr134 (nucleic acid, listed as DNA, chemistry not fully specified) guide: GTTTAAGAGCTAAGCTGGAAACAGCATAGCAAGTTTAAATAAGGCTAGTCCGTTATTAACTTGAACAAGTGGCACCGAGTCGGTGCT | 0.5692
cr500 (nucleic acid, listed as DNA, chemistry not fully specified) guide: GTTTAAGAGCTAAGCTGGAAACAGCATAGCAAGTTTAAATAAGGCTAGTCCGTTATCAACTTGAAAAAGTGGCACCGAGGCGGTGCT | 0.5743
cr223 (nucleic acid, listed as DNA, chemistry not fully specified) guide: GTTTAAGAGCTAAGCTGGAAACAGCATAGCAAGTTTAAATAAGGGTACTCCGTTATCAACTTGAAAAAGTGGCACCGAGTCGGTGCT | 0.5667
cr427 (nucleic acid, listed as DNA, chemistry not fully specified) guide: GTTTAAGAGCTAAGCTGGAAACAGCATAGCAAGTTTAAATAAGGCTAGTCCGTTATAAACTTGAAAAAGTGGCACCGAATCGGTGCT | 0.5383
cr531 (nucleic acid, listed as DNA, chemistry not fully specified) guide: GTTTAAGAGCTAAGCTGGTAACAGCATAGCAAGTTTAAATAAGGCTAGTCCGTTATCAACTTGAAAAAGTGGCACCGAGTCGGTGCT | 1.048
cr254 (nucleic acid, listed as DNA, chemistry not fully specified) guide: GTTTAAGAGCTAAGCTGGAAACAGCATAGCAAGTTTAAATAAGGCTAGTCCGTTATCAACTTGAAAAAGTGGCACACAGTGTGTGCT | 0.5503

Same assay, conditions: sgRNA constant region variants; relative to the original, un-modified constant region cr995; CRISPRi

Molecule | Mean relative activity
cr150 (nucleic acid, listed as DNA, chemistry not fully specified) guide: GTTTAAGAGCTAAGCTGGAAACAGCATAGCAAGTTTAAATAAGGCTAGTCCGTTATCAACTTGAAAAAGTGGCAGCGAGTCGGTGCT | 0.523
cr072 (nucleic acid, listed as DNA, chemistry not fully specified) guide: GTCTAAGTGCTAAGCTGGAAACAGCATAGCAAGTTTAAATAAGGCTAGTCCGTTATCAACTTGAAAAAGTGGCACCGAGTCGGTGCT | 0.5236
cr724 (nucleic acid, listed as DNA, chemistry not fully specified) guide: GTTTAAGAGCTAAGCTGGAAACAGCATAGCAAGTTTAAATAAGGCTAGTCCGTTATCGACTTGAAAAAGTGGCACCGAGTCGGTGCT | 0.5177
cr265 (nucleic acid, listed as DNA, chemistry not fully specified) guide: GTTTAAGAGCTAAGCTGGAAACAGCATAGCAAGTTTAAATAAGGTTAGTCCGTTATCAACTTGAAAAAGTGGCACCGAGTCGGTGCT | 0.5157
cr548 (nucleic acid, listed as DNA, chemistry not fully specified) guide: GTTTAAGAGCTAAGCTGGAAACAGCATAGCAAGTTTAAATAAGGCTAGTCCGTTATCAACTTGAAAAAGTGGCAACGAGTCGGTGCT | 0.513
cr511 (nucleic acid, listed as DNA, chemistry not fully specified) guide: GTTTAAGAGCTAAGCTGGAAACAGCATTGCCAGTTTAAATAAGGCTAGTCCGTTATCAACTTGAAAAAGTGGCACCGCGTCGGTGCT | 0.5247
cr005 (nucleic acid, listed as DNA, chemistry not fully specified) guide: GCTTAAGAGCTAAGCTGGAAACAGCATAGCAAGTTTAAATAAGGCTAGTCCGTTATCAACTTGAAAAAGTGGCACCGAGTCGGTGCT | 0.5108
cr166 (nucleic acid, listed as DNA, chemistry not fully specified) guide: GTTTAAGAGCTAAGCTGGAAACAGCATAGCAAGCTTAAATAAGGCTAGTCCGTTATCAACTTGAAAAAGTGGTACCGAGTCGGTACT | 0.5245
cr599 (nucleic acid, listed as DNA, chemistry not fully specified) guide: GTTTAAGAGCTAAGCTGGAAACAGCATAGCAAGTTTAAATAAGGCTAGCCCGTTATCAACGTGAAAAAGTGGCACCGAGTCGGTGCT | 0.5112

— patent US20220259593A1, “CONTROL OF MAMMALIAN GENE DOSAGE USING CRISPR” (The Regents of the University of California, priority 2019, published 2022)
